The values that follow come from patent US20220119553A1 (Sanofi, published 2022).

For experiment [1], the target named is T1, recombinant human IL4 (human, UniProt P05112 25-153).
T1 construct: Bought; also called interleukin 4
T1 sequence (looked up): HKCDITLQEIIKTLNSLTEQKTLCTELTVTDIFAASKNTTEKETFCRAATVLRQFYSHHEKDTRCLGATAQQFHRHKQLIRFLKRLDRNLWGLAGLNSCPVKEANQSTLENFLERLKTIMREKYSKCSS
Nature of the experiment: SPR (BIACORE 3000), antibody captured, human IL4 as analyte. On the technique in general: Surface plasmon resonance follows binding to a sensor surface in real time, without labels.

In experiment [2] the target is T1, recombinant human IL4. Nature of the experiment: cell-based or functional assay.
Experiment [3] addresses CD38 on human multiple myeloma cells (human, UniProt P28907 1-300). Kind of experiment: cell-based or functional assay.
In experiment [4] the target is T2, human CD19 (ELISA antigen) (human, UniProt P15391 20-291, limits assumed).
T2 sequence (looked up): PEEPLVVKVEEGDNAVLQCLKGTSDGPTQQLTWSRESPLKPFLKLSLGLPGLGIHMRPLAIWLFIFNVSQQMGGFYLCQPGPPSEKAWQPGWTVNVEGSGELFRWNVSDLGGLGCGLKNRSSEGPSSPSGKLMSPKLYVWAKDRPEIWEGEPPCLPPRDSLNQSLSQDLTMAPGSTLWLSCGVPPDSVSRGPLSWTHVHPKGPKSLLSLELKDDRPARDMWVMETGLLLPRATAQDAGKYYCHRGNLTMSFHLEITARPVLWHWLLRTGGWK
Nature of the experiment: ELISA on coated antigen, detection with HRP-conjugated anti-Fab secondary antibody, OD450. (In general: ELISA stands for enzyme-linked immunosorbent assay.)
Protocol: The coated plate was blocked using 5% skim milk+2% BSA in PBS for one hour at RT, followed by washing with PBS+0.25% Tween 20 three times (Aqua Max 400, Molecular Devices). Serial dilution of antibodies (trispecific and control Abs) were prepared and added onto the ELISA plates (100 μl/well in duplicate), incubated at RT for one hour, followed by washing 5 times with PBS+0.25% Tween 20.
The reaction was terminated by adding 50 μl 1M H₂SO₄, and OD₄₅₀ was measured using SpectraMax M5 (Molecular Devices) and analyzed using SoftMax Pro6.3 software (Molecular Devices). […] EC50 was calculated using the same software.

B1: Binding Protein 16 (bispecific antibody, human IgG1, kappa, lambda)
heavy 1: not shown
light 1: DIVLTQSPASLAVSLGQRATISCRASESVDSYGQSYMHWYQQKAGQPPKLLIYLASNLESGVPARFSGSGSRTDFTLTIDPVQAEDAATYYCQQNAEDSRTFGGGTKLEIKGQPKAAPSVTLFPPSSEELQANKATLVCLISDFYPGAVTVAWKADSSPVKAGVETTTPSKQSNNKYAASSYLSLTPEQWKSHRSYSCQVTHEGSTVEKTVAPTECS
heavy 2: not shown
light 2: not shown
notes: Bispecific trivalent (CODV-Fab) × Fab-IgG1 Fc; two IL13 sites, one IL4 site; also called IL13 × (IL13 × IL4); (anti-IL13 × anti-IL4) × anti-IL13
B1: in experiment [1], the Kd – broadly, a measure of binding affinity in units of concentration – was found to be 5.88 pM; the “No. of ILs Bound” value was 1; the “kDa Bound” value worked out at 17 kDa; the koff (commonly the first-order rate constant of dissociation) stood at 0.00028 s⁻¹. For the same molecule, the kon (commonly the second-order rate constant of association) in experiment [1] was 4.77e+07 M⁻¹ s⁻¹. Further, the “IL4 IC50 (HEK Blue reporter assay)” value in experiment [2] was found to be 0.013 µg/mL.

B2: Binding Protein 18 (bispecific antibody, human IgG1, kappa, lambda)
heavy 1: not shown
light 1: DIVLTQSPASLAVSLGQRATISCRASESVDSYGQSYMHWYQQKAGQPPKLLIYLASNLESGVPARFSGSGSRTDFTLTIDPVQAEDAATYYCQQNAEDSRTFGGGTKLEIKGQPKAAPSVTLFPPSSEELQANKATLVCLISDFYPGAVTVAWKADSSPVKAGVETTTPSKQSNNKYAASSYLSLTPEQWKSHRSYSCQVTHEGSTVEKTVAPTECS
heavy 2: not shown
light 2: not shown
notes: Bispecific trivalent (CODV-Fab) × Fab-IgG1 Fc; two IL13 sites, one IL4 site; also called IL13 × (IL4 × IL13); (anti-IL4 × anti-IL13) × anti-IL13
On to B2, for which, in experiment [1], the Kd was found to be 10.2 pM, the “No. of ILs Bound” value amounted to 1, the “kDa Bound” value came out at 18 kDa and the koff was 0.000359 s⁻¹. In experiment [1], the association rate constant (kon) was 3.52e+07 M⁻¹ s⁻¹. Moreover, the “IL4 IC50 (HEK Blue reporter assay)” value in experiment [2] was determined as 0.0146 µg/mL.

B3: Binding Protein 17 (bispecific antibody, human IgG1, kappa, lambda)
heavy 1: not shown
light 1: DIQMTQSPASLSVSVGDTITLTCHASQNIDVWLSWFQQKPGNIPKLLIYKASNLHTGVPSRFSGSGSGTGFTLTISSLQPEDIATYYCQQAHSYPFTFGGGTKLEIKGQPKAAPSVTLFPPSSEELQANKATLVCLISDFYPGAVTVAWKADSSPVKAGVETTTPSKQSNNKYAASSYLSLTPEQWKSHRSYSCQVTHEGSTVEKTVAPTECS
heavy 2: not shown
light 2: not shown
notes: Bispecific trivalent (CODV-Fab) × Fab-IgG1 Fc; two IL4 sites, one IL13 site; also called IL4 × (IL13 × IL4); (anti-IL13 × anti-IL4) × anti-IL4
Turning to B3, in experiment [1], the dissociation constant Kd is 2.4 pM, the “No. of ILs Bound” value is 2, the “kDa Bound” value is 35 kDa and the koff amounted to 0.00076 s⁻¹. In addition, the kon in experiment [1] is 3.16e+08 M⁻¹ s⁻¹. In addition, the “IL4 IC50 (HEK Blue reporter assay)” value in experiment [2] was 0.00862 µg/mL.

B4: Binding Protein 19 (bispecific antibody, human IgG1, kappa, lambda)
heavy 1: not shown
light 1: DIQMTQSPASLSVSVGDTITLTCHASQNIDVWLSWFQQKPGNIPKLLIYKASNLHTGVPSRFSGSGSGTGFTLTISSLQPEDIATYYCQQAHSYPFTFGGGTKLEIKGQPKAAPSVTLFPPSSEELQANKATLVCLISDFYPGAVTVAWKADSSPVKAGVETTTPSKQSNNKYAASSYLSLTPEQWKSHRSYSCQVTHEGSTVEKTVAPTECS
heavy 2: not shown
light 2: not shown
notes: Bispecific trivalent (CODV-Fab) × Fab-IgG1 Fc; two IL4 sites, one IL13 site; also called IL4 × (IL4 × IL13); (anti-IL4 × anti-IL13) × anti-IL4
On to B4, for which, in experiment [1], the Kd was found to be 4.65 pM, the “No. of ILs Bound” value came out at 2, the “kDa Bound” value was 34 kDa and the dissociation rate constant (koff) is 0.000385 s⁻¹. Also, in experiment [1], the kon was determined as 8.27e+07 M⁻¹ s⁻¹. The “IL4 IC50 (HEK Blue reporter assay)” value in experiment [2] is 0.00573 µg/mL.

B5: Binding Protein 5 (other)
heavy 1: QVQLVQSGAEVAKPGTSVKLSCKASGYTFTDYWMQWVKQRPGQGLEWIGTIYPGDGDTGYAQKFQGKATLTADKSSKTVYMHLSSLASEDSAVYYCARGDYYGSNSLDYWGQGTSVTVSSASTKGPSVFPLAPCSRSTSESTAALGCLVKDYFPEPVTVSWNSGALTSGVHTFPAVLQSSGLYSLSSVVTVPSSSLGTKTYTCNVDHKPSNTKVDKRVESKYGPPCPPCPAPEFLGGPSVFLFPPKPKDTLMISRTPEVTCVVVDVSQEDPEVQFNWYVDGVEVHNAKTKPREEQFNSTYRVVSVLTVLHQDWLNGKEYKCKVSNKGLPSSIEKTISKAKGQPREPQVYTLPPCQEEMTKNQVSLWCLVKGFYPSDIAVEWESNGQPENNYKTTPPVLDSDGSFFLYSKLTVDKSRWQEGNVFSCSVMHEALHNHYTQKSLSLSLGK
light 1: DIVMTQSHLSMSTSLGDPVSITCKASQDVSTVVAWYQQKPGQSPRRLIYSASYRYIGVPDRFTGSGAGTDFTFTISSVQAEDLAVYYCQQHYSPPYTFGGGTKLEIKRTVAAPSVFIFPPSDEQLKSGTASVVCLLNNFYPREAKVQWKVDNALQSGNSQESVTEQDSKDSTYSLSSTLTLSKADYEKHKVYACEVTHQGLSSPVTKSFNRGEC
heavy 2: QVQLVQSGAEVVKPGASVKVSCKASGYTFTSYYIHWVRQAPGQGLEWIGSIYPGNVNTNYAQKFQGRATLTVDTSISTAYMELSRLRSDDTAVYYCTRSHYGLDWNFDVWGKGTTVTVSSSQVQLVESGGGVVQPGRSLRLSCAASGFTFTKAWMHWVRQAPGKQLEWVAQIKDKSNSYATYYADSVKGRFTISRDDSKNTLYLQMNSLRAEDTAVYYCRGVYYALSPFDYWGQGTLVTVSSRTASTKGPSVFPLAPCSRSTSESTAALGCLVKDYFPEPVTVSWNSGALTSGVHTFPAVLQSSGLYSLSSVVTVPSSSLGTKTYTCNVDHKPSNTKVDKRVESKYGPPCPPCPAPEFLGGPSVFLFPPKPKDTLMISRTPEVTCVVVDVSQEDPEVQFNWYVDGVEVHNAKTKPREEQFNSTYRVVSVLTVLHQDWLNGKEYKCKVSNKGLPSSIEKTISKAKGQPREPQVCTLPPSQEEMTKNQVSLSCAVKGFYPSDIAVEWESNGQPENNYKTTPPVLDSDGSFFLVSKLTVDKSRWQEGNVFSCSVMHEALHNHYTQKSLSLSLGK
light 2: DIVMTQTPLSLSVTPGQPASISCKSSQSLVHNNANTYLSWYLQKPGQSPQSLIYKVSNRFSGVPDRFSGSGSGTDFTLKISRVEAEDVGVYYCGQGTQYPFTFGSGTKVEIKGQPKAAPDIQMTQSPSSLSASVGDRVTITCQASQNIYVWLNWYQQKPGKAPKLLIYKASNLHTGVPSRFSGSGSGTDFTLTISSLQPEDIATYYCQQGQTYPYTFGQGTKLEIKTKGPSRTVAAPSVFIFPPSDEQLKSGTASVVCLLNNFYPREAKVQWKVDNALQSGNSQESVTEQDSKDSTYSLSSTLTLSKADYEKHKVYACEVTHQGLSSPVTKSFNRGEC
Turning to B5, the “EC50 (pM), antibody-mediated cell killing of RPMI8226 cells” value in experiment [3] was 0.379 pM.

B6: Binding Protein 3 (other)
heavy 1: QVQLVQSGAEVKKPGSSVKVSCKASGYAFSSYWMNWVRQAPGQGLEWIGQIWPGDGDTNYNQKFKGRATLTADESTSTAYMELSSLRSEDTAVYYCARRETTTVGRYYYAMDYWGQGTTVTVSSASTKGPSVFPLAPCSRSTSESTAALGCLVKDYFPEPVTVSWNSGALTSGVHTFPAVLQSSGLYSLSSVVTVPSSSLGTKTYTCNVDHKPSNTKVDKRVESKYGPPCPPCPAPEFLGGPSVFLFPPKPKDTLMISRTPEVTCVVVDVSQEDPEVQFNWYVDGVEVHNAKTKPREEQFNSTYRVVSVLTVLHQDWLNGKEYKCKVSNKGLPSSIEKTISKAKGQPREPQVYTLPPCQEEMTKNQVSLWCLVKGFYPSDIAVEWESNGQPENNYKTTPPVLDSDGSFFLYSKLTVDKSRWQEGNVFSCSVMHEALHNHYTQKSLSLSLGK
light 1: DLVLTQSPASLAVSPGQRATITCKASQSVDYDGDSYLNWYQQKPGQPPKLLIYDASNLVSGVPARFSGSGSGTDFTLTINPVEANDTANYYCQQSTEDPWTFGQGTKLEIKRTVAAPSVFIFPPSDEQLKSGTASVVCLLNNFYPREAKVQWKVDNALQSGNSQESVTEQDSKDSTYSLSSTLTLSKADYEKHKVYACEVTHQGLSSPVTKSFNRGEC
heavy 2: QVQLVQSGAEVVKPGASVKVSCKASGYTFTSYYIHWVRQAPGQGLEWIGSIYPGNVNTNYAQKFQGRATLTVDTSISTAYMELSRLRSDDTAVYYCTRSHYGLDWNFDVWGKGTTVTVSSSQVQLVESGGGVVQPGRSLRLSCAASGFTFTKAWMHWVRQAPGKQLEWVAQIKDKSNSYATYYADSVKGRFTISRDDSKNTLYLQMNSLRAEDTAVYYCRGVYYALSPFDYWGQGTLVTVSSRTASTKGPSVFPLAPCSRSTSESTAALGCLVKDYFPEPVTVSWNSGALTSGVHTFPAVLQSSGLYSLSSVVTVPSSSLGTKTYTCNVDHKPSNTKVDKRVESKYGPPCPPCPAPEFLGGPSVFLFPPKPKDTLMISRTPEVTCVVVDVSQEDPEVQFNWYVDGVEVHNAKTKPREEQFNSTYRVVSVLTVLHQDWLNGKEYKCKVSNKGLPSSIEKTISKAKGQPREPQVCTLPPSQEEMTKNQVSLSCAVKGFYPSDIAVEWESNGQPENNYKTTPPVLDSDGSFFLVSKLTVDKSRWQEGNVFSCSVMHEALHNHYTQKSLSLSLGK
light 2: DIVMTQTPLSLSVTPGQPASISCKSSQSLVHNNANTYLSWYLQKPGQSPQSLIYKVSNRFSGVPDRFSGSGSGTDFTLKISRVEAEDVGVYYCGQGTQYPFTFGSGTKVEIKGQPKAAPDIQMTQSPSSLSASVGDRVTITCQASQNIYVWLNWYQQKPGKAPKLLIYKASNLHTGVPSRFSGSGSGTDFTLTISSLQPEDIATYYCQQGQTYPYTFGQGTKLEIKTKGPSRTVAAPSVFIFPPSDEQLKSGTASVVCLLNNFYPREAKVQWKVDNALQSGNSQESVTEQDSKDSTYSLSSTLTLSKADYEKHKVYACEVTHQGLSSPVTKSFNRGEC
notes: Trispecific antibody of four chains, IgG4: anti-CD19 Fab arm (knob) and CODV arm anti-CD28 x anti-CD3 (hole); also called anti-CD19×CD28×CD3 IgG4 trispecific antibody; CD19 × (CD28 × CD3)
As for B6, the binding result in experiment [4] was “binds”.
